These are literature values, as cited in patent publication US20050074809A1, “System and method for systematic prediction of ligand/receptor activity” (priority 2001, published 2005).

The target in one data set is HLA-DRB1*0101 molecule (Homo sapiens, UniProt P01903+P01911, A100R/D57E/F55L/F60I/F76Y/I96L/L162R/M171V/P40L/Q125E/R42F/V115G/Y59C). Particulars: result in words; reported binding data.
Another data set has as its target HLA-A*0201 molecule (Homo sapiens, UniProt P04439, D140Y/D185E/D98H/E176V/E277Q/G131W/G231S/I119V/I121R/I166T/I218V/L300P/L318F/N151K/N90K/P208A/P217A/Q86G/Q94H/R138H/R169H/T345S). Particulars: result in words; Kawakami and Rosenberg 1996.

In the case of “PKPPKPVSKMRMATPLLMQALPMG [Peptide of class II invariant chain (SwissProt Acc. P04233)]”, the “binding to HLA-DR1(0101) (HLA-DRB1*0101)” value in the data set with HLA-DRB1*0101 molecule is on record as “binds”. On to FAGKNTDLE, for which, in the data set with HLA-DRB1*0101 molecule, the “binding to HLA-DR1(0101) (HLA-DRB1*0101)” value is given as “does not bind”.

On to “PLWGPRALV [Peptide of the mage-3 antigen (SWISSPROT:MAG3_HUMAN)]”, for which, at HLA-A*0201 molecule, the “binding to HLA-A*0201” value was “binds”.
